Test [1] addresses CD2 on CD2 positive cells in human peripheral blood (human) (UniProt P06729). Description: specificity control, cells recovered after the column (not adsorbed), with biotin block; flow cytometry; mean ± SD of 3. On the technique in general: A flow cytometer gives signals particle by particle.
The target is the same in test [2]. Description: specificity control, cells recovered after the column (not adsorbed), without biotin block; flow cytometry; mean ± SD of 3.
The target of test [3] is CD8 on CD8 positive cells in human peripheral blood (human) (UniProt P01732). Description: specificity control, cells recovered after the column (not adsorbed); flow cytometry; mean ± SD of 3.

From patent publication US20100069815A1 come the findings set out here.

CD2 on CD2 positive cells in human peripheral blood (human), sequence (P06729 25-351): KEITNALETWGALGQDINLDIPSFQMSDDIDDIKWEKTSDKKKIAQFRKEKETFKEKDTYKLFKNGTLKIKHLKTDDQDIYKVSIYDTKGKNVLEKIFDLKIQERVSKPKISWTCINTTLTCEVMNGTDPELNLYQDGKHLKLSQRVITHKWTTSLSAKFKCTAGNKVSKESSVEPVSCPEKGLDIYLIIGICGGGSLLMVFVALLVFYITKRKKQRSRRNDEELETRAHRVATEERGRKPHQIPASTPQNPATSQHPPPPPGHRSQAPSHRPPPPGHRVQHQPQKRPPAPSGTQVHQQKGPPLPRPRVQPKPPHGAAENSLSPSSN
CD8 on CD8 positive cells in human peripheral blood (human), sequence (P01732 22-235): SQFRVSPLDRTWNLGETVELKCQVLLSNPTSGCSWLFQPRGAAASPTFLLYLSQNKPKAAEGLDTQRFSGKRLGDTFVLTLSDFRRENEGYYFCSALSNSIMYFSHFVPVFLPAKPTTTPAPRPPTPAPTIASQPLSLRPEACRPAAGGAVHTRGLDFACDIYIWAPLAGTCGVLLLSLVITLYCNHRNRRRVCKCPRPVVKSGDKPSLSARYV

As to 4G7 scFv-SA, the figures for the CD2 positive cell recovery rate (%) in test [1] and in test [2] were 78.7% and 76.4%, respectively.
For Leu3a scFv-Normal, the CD8 positive cell recovery rate (%) in test [3] was 78.9%.
